How the values were obtained:
[1] = target: T1, HA-Reck (Homo sapiens, UniProt O95980); assay: Proximity ligation assay (PLA), anti-V5/anti-HA, V5-tagged Wnt ligand and HA-Reck in GPR124−/−;RECK−/− cells; format: cell-based; conditions: GPR124−/−;RECK−/− cells co-expressing HA-Reck
T1 construct: expressed in transfected cells; host or cells: GPR124-/-;RECK-/- HEK293 (STF) cells, pCS2 / CMV promoter
T1 sequence (O95980 23-942): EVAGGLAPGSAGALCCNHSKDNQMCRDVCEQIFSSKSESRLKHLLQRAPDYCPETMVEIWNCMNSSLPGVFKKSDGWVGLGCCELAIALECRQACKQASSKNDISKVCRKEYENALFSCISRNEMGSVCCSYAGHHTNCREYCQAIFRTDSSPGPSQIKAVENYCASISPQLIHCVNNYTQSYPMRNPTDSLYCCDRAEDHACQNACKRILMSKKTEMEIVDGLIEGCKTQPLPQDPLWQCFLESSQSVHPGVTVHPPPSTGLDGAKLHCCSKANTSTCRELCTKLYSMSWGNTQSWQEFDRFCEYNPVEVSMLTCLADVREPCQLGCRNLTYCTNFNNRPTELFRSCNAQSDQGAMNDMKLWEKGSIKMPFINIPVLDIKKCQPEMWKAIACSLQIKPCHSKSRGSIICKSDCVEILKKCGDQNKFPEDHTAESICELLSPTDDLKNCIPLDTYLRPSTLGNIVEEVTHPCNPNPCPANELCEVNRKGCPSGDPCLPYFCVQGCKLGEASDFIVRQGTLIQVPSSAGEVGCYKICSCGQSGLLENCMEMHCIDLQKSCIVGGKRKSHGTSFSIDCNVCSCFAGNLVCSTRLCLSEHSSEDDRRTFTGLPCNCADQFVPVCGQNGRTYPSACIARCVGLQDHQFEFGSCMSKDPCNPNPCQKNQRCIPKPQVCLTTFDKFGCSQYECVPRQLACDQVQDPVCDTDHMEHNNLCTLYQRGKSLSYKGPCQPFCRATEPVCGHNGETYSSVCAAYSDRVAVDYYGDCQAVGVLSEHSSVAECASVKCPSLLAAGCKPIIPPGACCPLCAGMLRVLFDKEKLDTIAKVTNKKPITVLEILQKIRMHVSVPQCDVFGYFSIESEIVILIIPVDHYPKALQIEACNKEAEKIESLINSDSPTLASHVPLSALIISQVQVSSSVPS
Experimental: 1.7. Immunofluorescence and Proximity Ligation Assay Cells were grown in glass-coated chambers (IBIDI, Martinsried, Germany) and transfected after 24 h with Lipofectamine 2000 (Life Technologies, Carlsbad, Calif.). Cells were fixed with 4% paraformaldehyde for 10 min at room temperature (RT) 48 h post transfection. For immunofluorescence staining (IF), cells were blocked in 1% BSA-PBS for 30 min before being exposed to primary antibodies for 1 h at RT. After three PBS washes, cells were incubated with secondary antibodies for 1 h at RT. For anti-V5 staining of Wnt ligands, cells were additionally washes for 10 min in PBS 0.1% Tween 20 before incubation with the secondary antibody solution. For the proximity ligation assay (PLA) (Sigma-Aldrich, St. Louis, Mo.), cells were blocked for 30 min at 37° C. with the Blocking solution provided by the manufacturer before being incubated with the primary antibodies for 1 h at RT. Cells were washed three times and incubated with the PLA probes anti-rabbit PLUS and anti-mouse MINUS for 1 h at 37° C. After two PBS washes, cells were incubated with the Duolink Ligation solution for 30 min at 37° C. After two PBS washes, cells were incubated with the Duolink Amplification solution for 100 min at 37° C. The following antibodies were used: mouse monoclonal anti-V5 (R96025, Life Technologies, Carlsbad, Calif.) at 1:500 for IF and PLA, purified polyclonal rabbit anti-HA (H6908, St. Louis, Mo.) at 1:400 for IF and PLA and anti-mouse Alexa488-conjugated secondary antibody (Thermo Fisher Scientific, Waltham, Mass.) at 1:5000. Cells were stained for 2 min with Hoechst diluted to 10 μg ml-1 in PBS.
Cells and zebrafish embryos were imaged with an LSM710 confocal microscope and images were processed in ImageJ. Images of eye fusion phenotypes were taken on Leica M165 FC. Representations of brain vasculature were generated using Imaris software (BitPlane, Zurich, Switzerland). The percentage of PLA positive (PLA+) areas and DAPI positive (DAPI+) areas were calculated using ImageJ on images containing about 50 to 100 cells. The PLA+ area was measured after manually applying a fixed threshold. The DAPI+ area was measured after applying the “default” thresholding method in Image J.

[2] = system: Wnt7aa^−/− mutant zebrafish; assay: Transgenic endothelial expression (kdrl promoter) in Wnt7aa−/− zebrafish: hindbrain CtAs and GLUT1 staining; format: in vivo, Danio rerio; conditions: 60 hpf embryos
From the text: (A) Dorsal views of the cerebral vasculatures of 60 hpf WT or Wnt7aa^−/− Tg(kdrl:EGFP) embryos. In Wnt7a^−/− mutants, the intracerebral CtAs are lacking. Wnt7, Wnt7a^K190A or Wnt7a^1-278 were transiently expressed in the endothelium of Wnt7aa^−/− embryos under the control of an endothelial-specific kdrl (Vascular endothelial growth factor receptor kdr-like) promoter. The Wnt7 ligands were expressed as a biscistronic construct with BFP (Blue Fluorescent Protein) used as transgenesis marker. In contrast to uninjected embryos, Wnt7, Wnt7a^K190A or Wnt7a^1-278 restore hindbrain CtAs formation in Wnt7aa^−/− mutants as quantified in (B). (C) Anti-GLUT1 staining of the CtAs after transgenic expression of Wnt7, Wnt7a^K190A and Wnt7a^1-278 in 60 hpf Wnt7aa^−/− embryos. Transgenic expression was achieved as in (A).
Mouse Wnt7, Wnt7a^K190A and Wnt7a^1-278 were transiently expressed in the endothelium of Wnt7aa^−/− embryos under the control of an endothelial-specific kdrl (Vascular endothelial growth factor receptor kdr-like) promoter. The Wnt7 ligands were expressed as a biscistronic construct with BFP (Blue Fluorescent Protein) as transgenesis marker.

B1: Wnt7a^1-278: the N-terminal domain of Wnt7a, single domain truncated variant (protein)
chain: LGASIICNKIPGLAPRQRAICQSRPDAIIVIGEGSQMGLDECQFQFRNGRWNCSALGERTVFGKELKVGSREAAFTYAIIAAGVAHAITAACTQGNLSDCGCDKEKQGQYHRDEGWKWGGCSADIRYGIGFAKVFVDAREIKQNARTLMNLHNNEAGRKILEENMKLECKCHGVSGSCTTKTCWTTLPQFRELGYVLKDKYNEAVHVEPVRASRNKRPTFLKIKKPLSYRKPMDTDLVYIEKSPNYC
modifications: left off: small tags and cut ends
notes: the N-terminal domain of Wnt7a, single domain truncated variant
[1]
  Reck binding (anti-V5/anti-HA PLA signal): still binds Reck
[1]; listed as Wnt7a^NTD
  Reck binding (anti-V5/anti-HA PLA signal): bound to Reck as potently as full-length Wnt7a
[2]; anti-GLUT1 staining of CtAs
  blood-brain barrier (GLUT1 expression): restored blood-brain barrier
[2]; transient endothelial expression
  brain angiogenesis / hindbrain CtAs formation: triggered GPR124/RECK-dependent brain angiogenesis

Reference: patent US11840557B2, “Wnt7 variants capable of activating g-protein coupled receptor (Gpr)124/Reck/frizzled/lipoprotein receptor-related protein (LRP)-mediated Wnt signaling” (UNIVERSITÉ LIBRE DE BRUXELLES, priority 2018, dated 2023)
